Earlier results as cited in patent US12077586B2, “Bispecific antibodies for use in the treatment of hematological malignancies” (LAVA THERAPEUTICS N.V., priority 2018, dated 2024).
Where a chain is given by its changes, count along the chain named.

B1: 6E4: Vγ9Vδ2-TCR binding VHH, SEQ ID NO: 152 (protein)
VHH: EVQLVESGGGLVQAGGSLRLSCAASGFTFDDYCIAWFRQAPGKEREPVSCITTSDGSTYYADSVKGRFTISSDNAKNTVYLQMNRLKPEDTAVYYCAAYFGYGCYGGAQDYRAMDYWGKGTLVTVSS
modifications: antibody sequence
B2: 5C7: Vγ9Vδ2-TCR binding VHH, SEQ ID NO: 153 (protein)
VHH: EVQLVESGGGLVQAGDSLRLSCAASGRTFSRYTMGWFRQAPGKEREFVAAISWSGGRTNFAGSVKGRFTISRDNAKNTVYLQMNSLKPEDTAVYYCAADWLPVPGRESYDYWGQGTQVTVSS
modifications: antibody sequence
B3: 6H1: Vγ9Vδ2-TCR binding VHH, SEQ ID NO: 140 (protein)
VHH: EVQLVESGGGLVQAGGSLRLSCAATGRTFSEYAMGWFRQAPGKEREFAAAISWTGSKTYYADSVKGRFTISRDNAKNTVYLQMNSLKPEDTAVYYCAASSDCSGPGCHTEEYDYWGQGTQVTVSS
modifications: antibody sequence
B4: 5C1: Vγ9Vδ2-TCR binding VHH, SEQ ID NO: 142 (protein)
VHH: EVQLVESGGGLVQPGGSLRLSCAASGSIFSNYAMAWFRQAPEKERDFLAAVSWSGGRTYYADSVKGRFTISRDNAKNTVNLQMNSLKPEDTAVYYCAASLSCSGPGCSLEEYDYWGQGTQVTVSS
modifications: antibody sequence
B5: 5D7: Vγ9Vδ2-TCR binding VHH, SEQ ID NO: 154 (protein)
VHH: EVQLVESGGGLVQAGGSLRLSCIASGRTFSNYAMGWFRQAPGKEREFVAAISWSGGMTDHADSVKGRFTISRDNAKNTVYLQMNSLKPEDTAVYYCAAAFAGDIPYGSSWYGDPTTYDYWGQGTQVTVSS
modifications: antibody sequence
B6: 6A1: Vγ9Vδ2-TCR binding VHH, SEQ ID NO: 151 (protein)
VHH: EVQLVESGGGLVQAGGSLRLSCAASGRTFSNYAMGWFRQAPGKEREFVATISWSGGSTYYADSVKGRFTISRDNAKNTVYLQMNSLKPEDTAVYYCAAAFSGSDYANTKKEVEYDYWGQGTQVTVSS
modifications: antibody sequence
B7: 5E3: Vγ9Vδ2-TCR binding VHH, SEQ ID NO: 139 (protein)
VHH: EVQLVESGGGLVQAGGSLRLSCTASGRTFSSYAMGWFRQAPGKEREFVAAISWSGGTTYYADSVKGRFTISRDNAKNTVSLQMNSLKPEDTAVYFCAASLDCSGPGCHTAEYDYWGQGTQVTVSS
modifications: antibody sequence
B8: 5B11: Vγ9Vδ2-TCR binding VHH, SEQ ID NO: 155 (protein)
VHH: EVQLVESGGGLVQAGGSLRLSCAASGRTSSTFSMAWFRQAPRKEREFVAAINWSGGSTRYADSVSDRFAISRDNAKNTVYLQMNNLKPEDTAVYYCAARRGGIYYSTQNDYDYWGQGTQVTVSS
modifications: antibody sequence
B9: 5G3: Vγ9Vδ2-TCR binding VHH, SEQ ID NO: 141 (protein)
VHH: EVQLVESGGGLVQAGGSLRLSCAASGRTFSSYAMGWFRQAPGKEREFVAAVSWSGGSTYYADSVKGRFTISRDNARNTVYLQMNSLNPEDTAVYYCAASQDCSGPGCYTNEYDSWGQGTQVTVSS
modifications: antibody sequence
B10: 6E3: Vγ9Vδ2-TCR binding VHH, SEQ ID NO: 144 (protein)
VHH: EVQLVESGGGLVQAGGSLRLSCAASGRPFSNYGMGWFRQAPGKKREFVAGISWSGGSTDYADSVKGRLTISRDNAKNTVYLQMNSLKPEDTAVYYCAAVFSGAETAYYPSDDYDYWGQGTQVTVSS
modifications: antibody sequence
B11: 6G3: Vγ9Vδ2-TCR binding VHH, SEQ ID NO: 148 (protein)
VHH: B10 VHH with S30N, K44E, D59Y, L68F, Y107Q, D111Y
modifications: antibody sequence
B12: 6H3: Vγ9Vδ2-TCR binding VHH, SEQ ID NO: 147 (protein)
VHH: B10 VHH with A24V, K44E, S52T, D59H, S63L, L68F, Y80H, D111T, D112E
modifications: antibody sequence
B13: 6C1: Vγ9Vδ2-TCR binding VHH, SEQ ID NO: 146 (protein)
VHH: B10 VHH with F47S, L68F
modifications: antibody sequence
B14: 6C4: Vγ9Vδ2-TCR binding VHH, SEQ ID NO: 156 (protein)
VHH: EVQLVESGGGLVQAGGSLRLSCAVSVRTFSDYRMGWFRQAPGKEREFVSTISWSGGLTYYADSVKGRFTISRDNSKNTLYLQMNSLKPEDTAVYYCAAGGGYAGGTYYHPEEWGQGTQVTVSS
modifications: antibody sequence
B15: 5F5: Vγ9Vδ2-TCR binding VHH, SEQ ID NO: 150 (protein)
VHH: EVQLVESGGGLVQAGGSLRLSCAASGRTFSNYAMGWFRQAPGKEREFVAAISWSGGSTYYADSVKGRFTISRDNAKNTVYLQMNSLKPEDTAVYYCAAMFSGSESQLVVVITNLYEYDYWGQGTQVTVSS
modifications: antibody sequence

Target: T1, Vδ2 chain (Homo sapiens, UniProt A0JD36)
T1 construct: host or cells: γδ T-cells expressing a Vδ2 chain paired with a non-Vγ9 chain
Details: Mean Fluorescence Index class; γδ T-cells expressing Vδ2 chain paired with non Vγ9 chain; cited from earlier work

T1 sequence (A0JD36 with tags, fused parts or gaps): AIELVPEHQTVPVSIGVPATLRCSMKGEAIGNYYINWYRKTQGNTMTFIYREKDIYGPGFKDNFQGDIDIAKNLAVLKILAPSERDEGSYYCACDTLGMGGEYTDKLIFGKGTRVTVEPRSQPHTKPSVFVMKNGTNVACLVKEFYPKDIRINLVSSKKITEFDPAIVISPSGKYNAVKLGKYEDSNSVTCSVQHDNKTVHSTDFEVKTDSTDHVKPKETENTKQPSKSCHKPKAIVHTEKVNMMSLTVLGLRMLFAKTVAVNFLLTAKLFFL
T1 sequence (P07766 23-207 partner): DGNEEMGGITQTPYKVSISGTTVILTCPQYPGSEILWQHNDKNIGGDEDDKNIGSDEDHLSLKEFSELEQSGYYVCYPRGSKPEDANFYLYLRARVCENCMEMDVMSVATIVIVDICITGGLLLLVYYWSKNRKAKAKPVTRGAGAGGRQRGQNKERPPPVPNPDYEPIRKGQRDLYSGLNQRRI
T1 sequence (P09693 23-182 partner): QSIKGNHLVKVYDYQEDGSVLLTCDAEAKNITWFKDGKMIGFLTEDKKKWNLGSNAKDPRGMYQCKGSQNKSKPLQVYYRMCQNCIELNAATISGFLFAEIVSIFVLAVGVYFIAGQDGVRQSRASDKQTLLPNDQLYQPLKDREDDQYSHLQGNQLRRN
T1 sequence (P04234 22-171 partner): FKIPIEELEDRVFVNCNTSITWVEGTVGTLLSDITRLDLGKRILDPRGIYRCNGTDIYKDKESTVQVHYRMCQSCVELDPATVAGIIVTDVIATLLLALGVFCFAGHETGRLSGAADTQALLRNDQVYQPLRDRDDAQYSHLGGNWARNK
T1 sequence (P20963 22-164 partner): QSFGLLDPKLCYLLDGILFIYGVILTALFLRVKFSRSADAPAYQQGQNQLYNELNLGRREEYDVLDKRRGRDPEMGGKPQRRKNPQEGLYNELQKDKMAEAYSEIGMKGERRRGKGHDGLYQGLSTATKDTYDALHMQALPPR

Row | Molecule | Binding, Vδ2+
1 | B1 | ++ (“++” indicates an MFI above 20)
2 | B2 | +/− (“+/−” indicates an MFI of between 1.5 and 4.5)
3 | B3 | − (“−” indicates a Mean Fluorescence Index (MFI) below 1.5)
4 | B4 | +/− (“+/−” indicates an MFI of between 1.5 and 4.5)
5 | B5 | ++ (“++” indicates an MFI above 20)
6 | B6 | ++ (“++” indicates an MFI above 20)
7 | B7 | − (“−” indicates a Mean Fluorescence Index (MFI) below 1.5)
8 | B8 | − (“−” indicates a Mean Fluorescence Index (MFI) below 1.5)
9 | B9 | − (“−” indicates a Mean Fluorescence Index (MFI) below 1.5)
10 | B10 | ++ (“++” indicates an MFI above 20)
11 | B11 | ++ (“++” indicates an MFI above 20)
12 | B12 | ++ (“++” indicates an MFI above 20)
13 | B13 | ++ (“++” indicates an MFI above 20)
14 | B14 | +/− (“+/−” indicates an MFI of between 1.5 and 4.5)
15 | B15 | ++ (“++” indicates an MFI above 20)

Tested on: γδ T-cells not expressing any of the Vγ9Vδ2 TCR chains
Details: Mean Fluorescence Index class; cells not expressing any Vγ9Vδ2 TCR chain; cited from earlier work

Row | Molecule | Binding, Vγ9Vδ2−
16 | B1 | − (“−” indicates a Mean Fluorescence Index (MFI) below 1.5)
17 | B2 | − (“−” indicates a Mean Fluorescence Index (MFI) below 1.5)
18 | B3 | − (“−” indicates a Mean Fluorescence Index (MFI) below 1.5)
19 | B4 | − (“−” indicates a Mean Fluorescence Index (MFI) below 1.5)
20 | B5 | − (“−” indicates a Mean Fluorescence Index (MFI) below 1.5)
21 | B6 | − (“−” indicates a Mean Fluorescence Index (MFI) below 1.5)
22 | B7 | − (“−” indicates a Mean Fluorescence Index (MFI) below 1.5)
23 | B8 | − (“−” indicates a Mean Fluorescence Index (MFI) below 1.5)
24 | B9 | − (“−” indicates a Mean Fluorescence Index (MFI) below 1.5)
25 | B10 | − (“−” indicates a Mean Fluorescence Index (MFI) below 1.5)
26 | B11 | − (“−” indicates a Mean Fluorescence Index (MFI) below 1.5)
27 | B12 | − (“−” indicates a Mean Fluorescence Index (MFI) below 1.5)
28 | B13 | − (“−” indicates a Mean Fluorescence Index (MFI) below 1.5)
29 | B14 | − (“−” indicates a Mean Fluorescence Index (MFI) below 1.5)
30 | B15 | − (“−” indicates a Mean Fluorescence Index (MFI) below 1.5)

Target: T2, Vγ9 chain (Homo sapiens, UniProt Q99603, T7A)
T2 construct: host or cells: γδ T-cells expressing a Vγ9 chain paired with a non-Vδ2 chain
Details: Mean Fluorescence Index class; γδ T-cells expressing Vγ9 chain paired with non Vδ2 chain; cited from earlier work

T2 sequence (Q99603 with tags, fused parts or gaps T7A limits assumed): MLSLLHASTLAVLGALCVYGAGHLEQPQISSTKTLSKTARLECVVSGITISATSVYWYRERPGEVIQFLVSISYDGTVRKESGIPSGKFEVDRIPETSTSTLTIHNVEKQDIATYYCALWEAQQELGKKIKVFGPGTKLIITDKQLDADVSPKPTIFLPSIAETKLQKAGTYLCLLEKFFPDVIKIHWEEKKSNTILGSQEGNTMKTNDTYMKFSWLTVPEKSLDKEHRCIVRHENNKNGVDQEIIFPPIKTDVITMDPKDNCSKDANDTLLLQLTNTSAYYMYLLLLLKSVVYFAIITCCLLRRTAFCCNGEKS
T2 sequence (P07766 23-207 partner): as the sequence (P07766 23-207 partner) above
T2 sequence (P09693 23-182 partner): as the sequence (P09693 23-182 partner) above
T2 sequence (P04234 22-171 partner): as the sequence (P04234 22-171 partner) above
T2 sequence (P20963 22-164 partner): as the sequence (P20963 22-164 partner) above

Row | Molecule | Binding, Vγ9+
31 | B1 | − (“−” indicates a Mean Fluorescence Index (MFI) below 1.5)
32 | B2 | − (“−” indicates a Mean Fluorescence Index (MFI) below 1.5)
33 | B3 | ++ (“++” indicates an MFI above 20)
34 | B4 | ++ (“++” indicates an MFI above 20)
35 | B5 | − (“−” indicates a Mean Fluorescence Index (MFI) below 1.5)
36 | B6 | − (“−” indicates a Mean Fluorescence Index (MFI) below 1.5)
37 | B7 | ++ (“++” indicates an MFI above 20)
38 | B8 | − (“−” indicates a Mean Fluorescence Index (MFI) below 1.5)
39 | B9 | ++ (“++” indicates an MFI above 20)
40 | B10 | − (“−” indicates a Mean Fluorescence Index (MFI) below 1.5)
41 | B11 | − (“−” indicates a Mean Fluorescence Index (MFI) below 1.5)
42 | B12 | +/− (“+/−” indicates an MFI of between 1.5 and 4.5)
43 | B13 | − (“−” indicates a Mean Fluorescence Index (MFI) below 1.5)
44 | B14 | ++ (“++” indicates an MFI above 20)
45 | B15 | − (“−” indicates a Mean Fluorescence Index (MFI) below 1.5)

Target: T3, complete Vγ9Vδ2 TCR (Homo sapiens, UniProt A0JD36+Q99603, T7A)
T3 construct: host or cells: γδ T-cells expressing the complete Vγ9Vδ2 TCR
Details: Mean Fluorescence Index class; cited from earlier work

T3 sequence (Q99603 with tags, fused parts or gaps T7A limits assumed): as the sequence (Q99603 with tags, fused parts or gaps T7A limits assumed) above
T3 sequence (A0JD36 with tags, fused parts or gaps, stated change not applied): as the sequence (A0JD36 with tags, fused parts or gaps) above
T3 sequence (P07766 23-207 partner): as the sequence (P07766 23-207 partner) above
T3 sequence (P09693 23-182 partner): as the sequence (P09693 23-182 partner) above
T3 sequence (P04234 22-171 partner): as the sequence (P04234 22-171 partner) above
T3 sequence (P20963 22-164 partner): as the sequence (P20963 22-164 partner) above

Row | Molecule | Binding, Vγ9Vδ2+
46 | B1 | ++ (“++” indicates an MFI above 20)
47 | B2 | +/− (“+/−” indicates an MFI of between 1.5 and 4.5)
48 | B3 | ++ (“++” indicates an MFI above 20)
49 | B4 | ++ (“++” indicates an MFI above 20)
50 | B5 | ++ (“++” indicates an MFI above 20)
51 | B6 | ++ (“++” indicates an MFI above 20)
52 | B7 | ++ (“++” indicates an MFI above 20)
53 | B8 | + (“+” indicates an MFI of between 4.6 and 20)
54 | B9 | ++ (“++” indicates an MFI above 20)
55 | B10 | ++ (“++” indicates an MFI above 20)
56 | B11 | ++ (“++” indicates an MFI above 20)
57 | B12 | ++ (“++” indicates an MFI above 20)
58 | B13 | ++ (“++” indicates an MFI above 20)
59 | B14 | ++ (“++” indicates an MFI above 20)
60 | B15 | ++ (“++” indicates an MFI above 20)
